Experimental data reported in publication PMC4968818.

Target: voltage-dependent anion channel (VDAC) protein (human (endogenous in T47D)) (UniProt P21796)
Experiment: co-IP; VDAC immunoprecipitated from cell lysate (anti-VDAC1/2/3, protein G agarose; lysate first blocked with 10 uM VDAC-binding membrane domain peptide), beads washed with PBS and incubated at RT for 50 min with recombinant HK at pH 7.8; western blots for HK-1, HK-2 and VDAC; band intensities normalized by VDAC bands

amount co-precipitated at pH 7.8, percent of that at pH 6.2 [%] | Binder
213 | recombinant hexokinase 2 (HK-2) (enzyme) MIASHLLAYFFTELNHDQVQKVDQYLYHMRLSDETLLEISKRFRKEMEKGLGATTHPTAAVKMLPTFVRSTPDGTEHGEFLALDLGGTNFRVLWVKVTDNGLQKVEMENQIYAIPEDIMRGSGTQLFDHIAECLANFMDKLQIKDKKLPLGFTFSFPCHQTKLDESFLVSWTKGFKSSGVEGRDVVALIRKAIQRRGDFDIDIVAVVNDTVGTMMTCGYDDHNCEIGLIVGTGSNACYMEEMRHIDMVEGDEGRMCINMEWGAFGDDGSLNDIRTEFDQEIDMGSLNPGKQLFEKMISGMYMGELVRLILVKMAKEELLFGGKLSPELLNTGRFETKDISDIEGEKDGIRKAREVLMRLGLDPTQEDCVATHRICQIVSTRSASLCAATLAAVLQRIKENKGEERLRSTIGVDGSVYKKHPHFAKRLHKTVRRLVPGCDVRFLRSEDGSGKGAAMVTAVAYRLADQHRARQKTLEHLQLSHDQLLEVKRRMKVEMERGLSKETHASAPVKMLPTYVCATPDGTEKGDFLALDLGGTNFRVLLVRVRNGKWGGVEMHNKIYAIPQEVMHGTGDELFDHIVQCIADFLEYMGMKGVSLPLGFTFSFPCQQNSLDESILLKWTKGFKASGCEGEDVVTLLKEAIHRREEFDLDVVAVVNDTVGTMMTCGFEDPHCEVGLIVGTGSNACYMEEMRNVELVEGEEGRMCVNMEWGAFGDNGCLDDFRTEFDVAVDELSLNPGKQRFEKMISGMYLGEIVRNILIDFTKRGLLFRGRISERLKTRGIFETKFLSQIESDCLALLQVRAILQHLGLESTCDDSIIVKEVCTVVARRAAQLCGAGMAAVVDRIRENRGLDALKVTVGVDGTLYKLHPHFAKVMHETVKDLAPKCDVSFLQSEDGSGKGAALITAVACRIREAGQR
143 | recombinant hexokinase 1 (HK-1) (enzyme) MIAAQLLAYYFTELKDDQVKKIDKYLYAMRLSDETLIDIMTRFRKEMKNGLSRDFNPTATVKMLPTFVRSIPDGSEKGDFIALDLGGSSFRILRVQVNHEKNQNVHMESEVYDTPENIVHGSGSQLFDHVAECLGDFMEKRKIKDKKLPVGFTFSFPCQQSKIDEAILITWTKRFKASGVEGADVVKLLNKAIKKRGDYDANIVAVVNDTVGTMMTCGYDDQHCEVGLIIGTGTNACYMEELRHIDLVEGDEGRMCINTEWGAFGDDGSLEDIRTEFDREIDRGSLNPGKQLFEKMVSGMYLGELVRLILVKMAKEGLLFEGRITPELLTRGKFNTSDVSAIEKNKEGLHNAKEILTRLGVEPSDDDCVSVQHVCTIVSFRSANLVAATLGAILNRLRDNKGTPRLRTTVGVDGSLYKTHPQYSRRFHKTLRRLVPDSDVRFLLSESGSGKGAAMVTAVAYRLAEQHRQIEETLAHFHLTKDMLLEVKKRMRAEMELGLRKQTHNNAVVKMLPSFVRRTPDGTENGDFLALDLGGTNFRVLLVKIRSGKKRTVEMHNKIYAIPIEIMQGTGEELFDHIVSCISDFLDYMGIKGPRMPLGFTFSFPCQQTSLDAGILITWTKGFKATDCVGHDVVTLLRDAIKRREEFDLDVVAVVNDTVGTMMTCAYEEPTCEVGLIVGTGSNACYMEEMKNVEMVEGDQGQMCINMEWGAFGDNGCLDDIRTHYDRLVDEYSLNAGKQRYEKMISGMYLGEIVRNILIDFTKKGFLFRGQISETLKTRGIFETKFLSQIESDRLALLQVRAILQQLGLNSTCDDSILVKTVCGVVSRRAAQLCGAGMAAVVDKIRENRGLDRLNVTVGVDGTLYKLHPHFSRIMHQTVKELSPKCNVSFLLSEDGSGKGAALITAVGVRLRTEASS
